Paper PMC5891081

T1: RAD52 wild type (Homo sapiens, UniProt P43351 1-418)
T1 sequence: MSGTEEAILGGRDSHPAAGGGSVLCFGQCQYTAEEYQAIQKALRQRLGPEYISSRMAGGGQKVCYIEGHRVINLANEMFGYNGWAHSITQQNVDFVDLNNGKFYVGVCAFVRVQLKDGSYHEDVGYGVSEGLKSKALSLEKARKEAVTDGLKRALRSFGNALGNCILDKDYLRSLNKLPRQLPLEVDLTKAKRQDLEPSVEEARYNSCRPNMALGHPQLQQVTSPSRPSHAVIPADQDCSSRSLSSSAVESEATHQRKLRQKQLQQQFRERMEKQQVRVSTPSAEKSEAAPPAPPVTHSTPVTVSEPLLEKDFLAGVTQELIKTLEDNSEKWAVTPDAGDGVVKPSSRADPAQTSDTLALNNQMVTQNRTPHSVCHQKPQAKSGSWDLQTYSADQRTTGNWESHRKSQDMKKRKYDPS


How the values were obtained:
[1] = target: GAL4-DBD-fused RAD52 (10xQ) (human) (UniProt P43351); experiment: two-hybrid; yeast; GAL4 DBD-fused RAD52 with NLS-GAL4 AD fusions; lacZ reporter, liquid beta-galactosidase assay, activity relative to RAD52 (Wt)
RAD52 wild type = target: T1, RAD52 wild type; experiment: EMSA; 10 uM nucleotides DNA; 16 uL reactions, Cy5-50-mer 10 uM in nucleotides; 5X buffer contains 0.1 M HEPES-NaOH pH 7.5 (20 mM final if 1X); remaining components, salt and temperature cut off in the material; details: protein: recombinant; tags: C-terminal His6 construct (pET21a) or pET15b construct; label: 5'-Cy5; single strand, 50 nt

Molecule | fold change of beta-galactosidase activity against RAD52 (Wt) [1] [fold] | binding result (RAD52 wild type)
GAL4-DBD-fused RAD52 (10xQ) (from UniProt P43351 1-418) (natural protein) | 1.7 | –
TCGCCATCAACTAACGATTCTGTCAAAAACTGACGCGTTGGATGAGGAGA (ssDNA) [FX174-50-1 (oligo 1)] | – | binds
